# Laboratory results from FireProtDB (doi:10.1021/bi962939w).
# Details: Mus musculus, 25 °C, CD, whole UniProt chain shown
# [1] = pH 4, Urea, Sodium acetate 10 mM
protein,measurement,setting,value
"Interleukin-6 wild type, P08505 (protein) MKFLSARDFHPVAFLGLMLVTTTAFPTSQVRRGDFTEDTTPNRPVYTTSQVGGLITHVLWEIVEMRKELCNGNSDCMNNDDALAENNLKLPEIQRNDGCYQTGYNQEICLLKISSGLLEYHSYLEYMKNNLKDNKKDKARVLQRDTETLIHIFNQEVKDLHKIVLPTPISNALLTDKLESQKEWLRTKTIQFILKSLEEFLKVTLRSTRQT",denaturant m value,[1],3 kcal/mol/M
same,denaturant midpoint (higher = more stable),[1],3.59 M
same,unfolding free energy,[1],10.8 kcal/mol
same,denaturant m value,"pH 7.4, GdnHCl, Tris-HCl 10 mM",1 kcal/mol/M
same,denaturant midpoint (higher = more stable),"pH 7.4, GdnHCl, Tris-HCl 10 mM",1.9 M
same,unfolding free energy,"pH 7.4, GdnHCl, Tris-HCl 10 mM",1.9 kcal/mol
same,denaturant m value,"pH 7.4, Urea, Tris-HCl 10 mM",1.1 kcal/mol/M
same,denaturant midpoint (higher = more stable),"pH 7.4, Urea, Tris-HCl 10 mM",5.2 M
same,unfolding free energy,"pH 7.4, Urea, Tris-HCl 10 mM",5.7 kcal/mol
